From patent publication US20070020252A1, “Modified protease inhibitors” (priority 2003, published 2007)
Values belong to the molecule of their own block, whether it stands above or below them. Where no end group is shown, it is not given here.

What was measured:
[1] = Pharmacokinetic study in mice: plasma clearance of 125I-labeled protein, SEC of plasma; assay type: in vivo; settings: for α Phase Clearance (%) / α Phase Half-life / β Phase Clearance (%) / β Phase Half-life (hr) / β Phase Half-life (min): tail vein injection, bi-exponential fit; for α half life: Table 4 summary
Experimental: The pharmacokinetics of DX-890 and the PEGylated DX-890 compounds were measured by iodinating the proteins on available tyrosine residues and measuring their clearance in mice.
Samples were radio-iodinated by the indirect method using the IODO-GEN reagent (method from Pierce Chem. Co., and first described by Chizzonite [J Immunol 147, 1548-1556, 1991; J. Immunol 148, 3117-3124, 1992]). Samples were incubated with the ^125I-NaI solution for 9 min at which time tyrosine (10 mg/mL, a saturated solution) was added to quench the reaction. After about 15 min a 5 μl aliquot was removed as a standard for counting.
For each labeling reaction, the ^125I-labeled material (approx. 0.6 mL) was purified using a single 5 mL D-salt 1800 polyacrylamide column (Pierce Chem. Co.). […] Samples were applied in and columns were eluted with a series of 0.3 mL aliquots. Recovery of applied activity in all protein fractions was >75% and the total recovery of applied activity was >90%. The fractions containing peak levels of labeled protein were pooled for animal injections. To prepare the injectate, the pool was diluted with Tris buffer (pH 7.5) so that the 100 μL injection volume contained about 10 μg of labeled material.
Time of injection and time of sampling were recorded. At sacrifice, samples of 0.5 ml were collected into anticoagulant (0.02 ml EDTA). Cells were spun down and separated from plasma, and cells were stored at −20° C. Plasma was divided into two aliquots, one frozen and one stored at 4° C. for immediate analysis. Analysis included gamma counting of all samples. In addition, analysis was performed for two plasma samples (N=2) at each time point, i.e., 0, and 30 minutes, for ^125I-DX-890, and 0, 30 minutes, and 24 h for the ^125I-DX-890-PEG conjugates. A SEC-HPLC Superose-12 column was used with an in-line radiation detector (FIGS. 4-7).
The solid curves through the sets of data plotted in FIG. 3 are four-parameter, least-squares fits of Equation 3 to the data. Table 3 presents the values for % α Phase, α Phase Half-life, % β Phase, and β Phase Half-life extracted from the least squares fits to the in vivo clearance data set obtained for each of the four compounds tested in mice.

[2] = biological target: T1, human neutrophil elastase (HNE) (Homo sapiens, UniProt P08246); assay: Ki measurement: tight-binding inhibition of HNE, fluorogenic substrate hydrolysis; assay type: biochemical
T1 sequence (P08246 30-267): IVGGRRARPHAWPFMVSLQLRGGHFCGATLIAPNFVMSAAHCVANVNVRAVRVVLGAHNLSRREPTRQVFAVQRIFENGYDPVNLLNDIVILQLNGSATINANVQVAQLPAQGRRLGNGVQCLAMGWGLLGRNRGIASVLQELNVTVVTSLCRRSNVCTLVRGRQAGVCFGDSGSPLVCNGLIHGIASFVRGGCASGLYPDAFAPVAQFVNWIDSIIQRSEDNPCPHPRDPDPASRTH
Experimental: (§1) Equilibrium inhibition constants for the PEGylated DX-890 samples were determined according to the tight-binding inhibition model with formation of a reversible complex (1:1 stoichiometry). Reactions were set up with 100 pM enzyme and a range of inhibitor concentrations (0-4 nM) at 30° C. in 50 mM HEPES, pH 7.5, 150 mM NaCl, and 0.1% Triton X-100. Following a 24 h incubation, substrate was added (25 μM) to the enzyme-inhibitor solution and the rate of substrate hydrolysis monitored at an excitation of 360 nm and an emission of 460 nm. Plots of the percent remaining activity versus active inhibitor concentration were fit by nonlinear regression analysis to Equation 1 to determine equilibrium dissociation constants. Both the Dyax DX-890 reference lot 00B16 and the DX-890 used for PEGylations, NBG2016/9 were analyzed for comparison. [formula] Where: • % A=percent activity • I=DX-890 • E=HNE concentration • Ki=equilibrium inhibition constant

[3] = Pharmacokinetic study in rabbits: plasma clearance of 125I-labeled protein, SEC of plasma; assay type: in vivo, New Zealand White rabbits
Experimental: Pharmacokinetic properties of DX-890 and PEG-30-DX-890 (conjugation at pH 7.4) were measured by iodinating the proteins and measuring clearance of the radiolabel from circulation in rabbits. The two DX-890 preparations were iodinated with iodine-125 using the iodogen method. After radiolabeling, the two labeled protein preparations were purified from unbound label by size exclusion chromatography (SEC). Fractions from the SEC column having the highest radioactivity were pooled. The purified, radiolabeled preparations were characterized for specific activity by gamma counting and for purity by SEC using a Superose-12 column equipped with an in-line radiation detector.
New Zealand White rabbits (ca. 2.5 Kg) were used for clearance measurements, with one animal used for each of the two labeled protein preparations. The radiolabeled preparation was injected into the animal via an ear vein. One blood sample was collected per animal per time point with early time points at approximately 0, 2.5, 5, 7, 15, 30, 60, and 90 minutes post injection and later time points at 4, 8, 16, 24, 30, 48, 72, 96, 144, 168, and 192 hours post injection. Samples (about 0.5 mL) were collected into anticoagulant (EDTA) containing tubes. Cells were separated from the plasma fraction by centrifugation. The plasma fraction was divided into two aliquots. One plasma aliquot was stored at −70° C. and the other aliquot was kept at 4° C. for immediate analyse's. Sample analyses included radiation counting for clearance rate determinations and SEC chromatography to test for changes in the size distribution of radiolabeled material in vivo (stability).

[4] = biological target: T2, human neutrophil elastase (human, UniProt P08246 30-247); assay: enzyme inhibition, tight-binding model; 100 pM hNE, 0-4 nM inhibitor, 24 h incubation at 30 C, fluorogenic substrate
T2 construct: also called hNE; HNE
T2 sequence (looked up): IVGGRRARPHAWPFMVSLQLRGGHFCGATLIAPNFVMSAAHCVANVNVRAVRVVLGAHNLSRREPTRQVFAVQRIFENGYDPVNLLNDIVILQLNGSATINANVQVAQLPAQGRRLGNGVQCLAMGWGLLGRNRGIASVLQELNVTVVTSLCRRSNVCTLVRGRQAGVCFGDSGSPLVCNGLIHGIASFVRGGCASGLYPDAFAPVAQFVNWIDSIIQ
Experimental: as §1, with “comparison.” for “comparison. [formula] Where: • % A=percent activity • I=DX-890 • E=HNE concentration • Ki=equilibrium inhibition constant”

[5] = biological target: T2, human neutrophil elastase; assay: enzyme inhibition, tight-binding model; 100 pM hNE (summary table, repeats Table 3)
Experimental: as §1, with “comparison.” for “comparison. [formula] Where: • % A=percent activity • I=DX-890 • E=HNE concentration • Ki=equilibrium inhibition constant”

[6] = biological target: T2, human neutrophil elastase; assay: enzyme inhibition, tight-binding model; 100 pM hNE; reference native DX-890
Experimental: as §1, with “comparison.” for “comparison. [formula] Where: • % A=percent activity • I=DX-890 • E=HNE concentration • Ki=equilibrium inhibition constant”

[7] = ear vein injection, bi-exponential fit

Molecule: PEG20-DX-890-7.4: DX-890 conjugated to a 20 kDa PEG moiety (MPEG-SPA20K, conjugated at pH 7.4), mono-PEGylated (EACNLPIVRGPCIAFFPRWAFDAVKGKCVLFPYGGCQGNGNKFYSEKECREYCGVP)
α Phase Clearance (%) [1]: 58% | α Phase Half-life [1]: 0.417 h | β Phase Clearance (%) [1]: 42% | β Phase Half-life (hr) [1]: 5.1 h | β Phase Half-life (min) [1]: 307 min

Ki relative to native DX-890 [2]: twice
Molecule: PEG30-DX-890-7.4: DX-890 conjugated to a 30 kDa PEG moiety (MPEG-SPA30K, conjugated at pH 7.4), mono-PEGylated (EACNLPIVRGPCIAFFPRWAFDAVKGKCVLFPYGGCQGNGNKFYSEKECREYCGVP; not fully specified)
fraction of total material in the slow clearance portion relative to unmodified DX-890 [3]: nearly doubles | in vivo half-life [3]: about 3 days | increase of T1/2β versus unmodified protein [3]: about 25 fold | time label remains stably associated with injectate peaks ([3]; SEC analysis of plasma samples): at least 72 hours | % α [3, 7]: 55% | % β [3, 7]: 45% | T1/2α [3, 7]: 2.73 h | T1/2β [3, 7]: 69.23 h | relative levels of circulating radiolabel versus unmodified protein ([3]; one day post injection): more than 100 fold

Molecule: PEG30-DX-890-6.0: DX-890 conjugated to a 30 kDa PEG moiety (MPEG-SPA30K, conjugated at pH 6), mono-PEGylated (EACNLPIVRGPCIAFFPRWAFDAVKGKCVLFPYGGCQGNGNKFYSEKECREYCGVP)
β phase half life [1]: about 8 hr | α half life [1]: 0.317 h | α Phase Clearance (%) [1]: 33% | α Phase Half-life [1]: 0.32 h | β Phase Clearance (%) [1]: 67% | β Phase Half-life (hr) [1]: 8.4 h | β Phase Half-life (min) [1]: 505 min

Molecule: PEG20-DX-890-6.0: DX-890 conjugated to a 20 kDa PEG moiety (MPEG-SPA20K, conjugated at pH 6), mono-PEGylated (EACNLPIVRGPCIAFFPRWAFDAVKGKCVLFPYGGCQGNGNKFYSEKECREYCGVP)
α half life [1]: 0.25 h | α Phase Clearance (%) [1]: 53% | α Phase Half-life [1]: 0.278 h | β Phase Clearance (%) [1]: 47% | β Phase Half-life (hr) [1]: 4.9 h | β Phase Half-life (min) [1]: 296 min

Ki [4]: 7 pM | Ki [5]: 7 pM
B1: DX-890 (designed binder)
chain: EACNLPIVRGPCIAFFPRWAFDAVKGKCVLFPYGGCQGNGNKFYSEKECREYCGVP
modifications: disulfide (positions not given here); also: three intramolecular disulfides, pairing not given here
notes: 56 aa, three intramolecular disulfides; also called EPI-hNE4; Native DX-890

Ki [4]: 8 pM | Ki [5]: 8 pM
B2: DX-890 conjugated to a 30 kDa PEG moiety (conjugated at pH 6) (designed binder)
chain: B1 chain
modifications: single 30 kDa mPEG (MPEG-SPA30K) attached, mono-PEGylated; reaction at pH 6.0, headed 'N-Terminal-Site Modification'
notes: also called PEG30-DX-890-6.0; +30K PEG, pH 6

Ki [4]: 7 pM | Ki [5]: 7 pM
B3: DX-890 conjugated to a 20 kDa PEG moiety (conjugated at pH 6) (designed binder)
chain: B1 chain
modifications: single 20 kDa mPEG (MPEG-SPA20K) attached, mono-PEGylated; reaction at pH 6.0, headed 'N-Terminal-Site Modification'
notes: also called PEG20-DX-890-6.0; +20K PEG, pH 6

Ki [4]: 16 pM | Ki [5]: 16 pM | fold Ki relative to native DX-890 [6]: 2 fold
B4: DX-890 conjugated to a 30 kDa PEG moiety (conjugated at pH 7.4) (designed binder)
chain: B1 chain
modifications: single 30 kDa mPEG (MPEG-SPA30K) attached, mono-PEGylated; reaction at pH 7.4, headed 'Random-Site Modification' (site not determined)
notes: also called PEG30-DX-890-7.4; +30K PEG, pH 7.4

Ki [4]: 8 pM | Ki [5]: 8 pM
B5: DX-890 conjugated to a 20 kDa PEG moiety (conjugated at pH 7.4) (designed binder)
chain: B1 chain
modifications: single 20 kDa mPEG (MPEG-SPA20K) attached, mono-PEGylated; reaction at pH 7.4, headed 'Random-Site Modification' (site not determined)
notes: also called PEG20-DX-890-7.4; +20K PEG, pH 7.4
